Measurements published in patent publication US20200087373A1 (UNIVERSITY OF COPENHAGEN, published 2020).
Ends that are not written are not given here. * marks the point of attachment. C16 diacid = O=C(O)CCCCCCCCCCCCCCC(=O)*

B1: AT307 [hGIP(3-30)NH2[I17K]-C16diacid/17] (peptide)
peptide: EGTFISDYSIAMDKK(C16 diacid)HQQDFVNWLLAQK-NH2
modifications: N-terminus assumed
SMILES: CC[C@H](C)[C@H](NC(=O)[C@H](CO)NC(=O)[C@H](Cc1ccc(O)cc1)NC(=O)[C@H](CC(=O)O)NC(=O)[C@H](CO)NC(=O)[C@@H](NC(=O)[C@H](Cc1ccccc1)NC(=O)[C@@H](NC(=O)CNC(=O)[C@@H](N)CCC(=O)O)[C@@H](C)O)[C@@H](C)CC)C(=O)N[C@@H](C)C(=O)N[C@@H](CCSC)C(=O)N[C@@H](CC(=O)O)C(=O)N[C@@H](CCCCN)C(=O)N[C@@H](CCCCNC(=O)CCCCCCCCCCCCCCC(=O)O)C(=O)N[C@@H](Cc1c[nH]cn1)C(=O)N[C@@H](CCC(N)=O)C(=O)N[C@@H](CCC(N)=O)C(=O)N[C@@H](CC(=O)O)C(=O)N[C@@H](Cc1ccccc1)C(=O)N[C@H](C(=O)N[C@@H](CC(N)=O)C(=O)N[C@@H](Cc1c[nH]c2ccccc12)C(=O)N[C@@H](CC(C)C)C(=O)N[C@@H](CC(C)C)C(=O)N[C@@H](C)C(=O)N[C@@H](CCC(N)=O)C(=O)N[C@@H](CCCCN)C(N)=O)C(C)C
B2: AT309 [hGIP(3-30)NH2[Q20K]-C16diacid/20] (peptide)
peptide: EGTFISDYSIAMDKIHQK(C16 diacid)DFVNWLLAQK-NH2
modifications: N-terminus assumed
SMILES: CC[C@H](C)[C@H](NC(=O)[C@H](CO)NC(=O)[C@H](Cc1ccc(O)cc1)NC(=O)[C@H](CC(=O)O)NC(=O)[C@H](CO)NC(=O)[C@@H](NC(=O)[C@H](Cc1ccccc1)NC(=O)[C@@H](NC(=O)CNC(=O)[C@@H](N)CCC(=O)O)[C@@H](C)O)[C@@H](C)CC)C(=O)N[C@@H](C)C(=O)N[C@@H](CCSC)C(=O)N[C@@H](CC(=O)O)C(=O)N[C@@H](CCCCN)C(=O)N[C@H](C(=O)N[C@@H](Cc1c[nH]cn1)C(=O)N[C@@H](CCC(N)=O)C(=O)N[C@@H](CCCCNC(=O)CCCCCCCCCCCCCCC(=O)O)C(=O)N[C@@H](CC(=O)O)C(=O)N[C@@H](Cc1ccccc1)C(=O)N[C@H](C(=O)N[C@@H](CC(N)=O)C(=O)N[C@@H](Cc1c[nH]c2ccccc12)C(=O)N[C@@H](CC(C)C)C(=O)N[C@@H](CC(C)C)C(=O)N[C@@H](C)C(=O)N[C@@H](CCC(N)=O)C(=O)N[C@@H](CCCCN)C(N)=O)C(C)C)[C@@H](C)CC
B3: AT310 [hGIP(3-30)NH2[D21K]-C16diacid/21] (peptide)
peptide: EGTFISDYSIAMDKIHQQK(C16 diacid)FVNWLLAQK-NH2
modifications: N-terminus assumed
SMILES: CC[C@H](C)[C@H](NC(=O)[C@H](CO)NC(=O)[C@H](Cc1ccc(O)cc1)NC(=O)[C@H](CC(=O)O)NC(=O)[C@H](CO)NC(=O)[C@@H](NC(=O)[C@H](Cc1ccccc1)NC(=O)[C@@H](NC(=O)CNC(=O)[C@@H](N)CCC(=O)O)[C@@H](C)O)[C@@H](C)CC)C(=O)N[C@@H](C)C(=O)N[C@@H](CCSC)C(=O)N[C@@H](CC(=O)O)C(=O)N[C@@H](CCCCN)C(=O)N[C@H](C(=O)N[C@@H](Cc1c[nH]cn1)C(=O)N[C@@H](CCC(N)=O)C(=O)N[C@@H](CCC(N)=O)C(=O)N[C@@H](CCCCNC(=O)CCCCCCCCCCCCCCC(=O)O)C(=O)N[C@@H](Cc1ccccc1)C(=O)N[C@H](C(=O)N[C@@H](CC(N)=O)C(=O)N[C@@H](Cc1c[nH]c2ccccc12)C(=O)N[C@@H](CC(C)C)C(=O)N[C@@H](CC(C)C)C(=O)N[C@@H](C)C(=O)N[C@@H](CCC(N)=O)C(=O)N[C@@H](CCCCN)C(N)=O)C(C)C)[C@@H](C)CC
B4: AT308 [hGIP(3-30)NH2[Q19K]-C16diacid/19] (peptide)
peptide: EGTFISDYSIAMDKIHK(C16 diacid)QDFVNWLLAQK-NH2
modifications: N-terminus assumed
SMILES: CC[C@H](C)[C@H](NC(=O)[C@H](CO)NC(=O)[C@H](Cc1ccc(O)cc1)NC(=O)[C@H](CC(=O)O)NC(=O)[C@H](CO)NC(=O)[C@@H](NC(=O)[C@H](Cc1ccccc1)NC(=O)[C@@H](NC(=O)CNC(=O)[C@@H](N)CCC(=O)O)[C@@H](C)O)[C@@H](C)CC)C(=O)N[C@@H](C)C(=O)N[C@@H](CCSC)C(=O)N[C@@H](CC(=O)O)C(=O)N[C@@H](CCCCN)C(=O)N[C@H](C(=O)N[C@@H](Cc1c[nH]cn1)C(=O)N[C@@H](CCCCNC(=O)CCCCCCCCCCCCCCC(=O)O)C(=O)N[C@@H](CCC(N)=O)C(=O)N[C@@H](CC(=O)O)C(=O)N[C@@H](Cc1ccccc1)C(=O)N[C@H](C(=O)N[C@@H](CC(N)=O)C(=O)N[C@@H](Cc1c[nH]c2ccccc12)C(=O)N[C@@H](CC(C)C)C(=O)N[C@@H](CC(C)C)C(=O)N[C@@H](C)C(=O)N[C@@H](CCC(N)=O)C(=O)N[C@@H](CCCCN)C(N)=O)C(C)C)[C@@H](C)CC
B5: AT312 [hGIP(3-30)NH2[V23K]-C16diacid/23] (peptide)
peptide: EGTFISDYSIAMDKIHQQDFK(C16 diacid)NWLLAQK-NH2
modifications: N-terminus assumed
SMILES: CC[C@H](C)[C@H](NC(=O)[C@H](CO)NC(=O)[C@H](Cc1ccc(O)cc1)NC(=O)[C@H](CC(=O)O)NC(=O)[C@H](CO)NC(=O)[C@@H](NC(=O)[C@H](Cc1ccccc1)NC(=O)[C@@H](NC(=O)CNC(=O)[C@@H](N)CCC(=O)O)[C@@H](C)O)[C@@H](C)CC)C(=O)N[C@@H](C)C(=O)N[C@@H](CCSC)C(=O)N[C@@H](CC(=O)O)C(=O)N[C@@H](CCCCN)C(=O)N[C@H](C(=O)N[C@@H](Cc1c[nH]cn1)C(=O)N[C@@H](CCC(N)=O)C(=O)N[C@@H](CCC(N)=O)C(=O)N[C@@H](CC(=O)O)C(=O)N[C@@H](Cc1ccccc1)C(=O)N[C@@H](CCCCNC(=O)CCCCCCCCCCCCCCC(=O)O)C(=O)N[C@@H](CC(N)=O)C(=O)N[C@@H](Cc1c[nH]c2ccccc12)C(=O)N[C@@H](CC(C)C)C(=O)N[C@@H](CC(C)C)C(=O)N[C@@H](C)C(=O)N[C@@H](CCC(N)=O)C(=O)N[C@@H](CCCCN)C(N)=O)[C@@H](C)CC
B6: AT311 [hGIP(3-30)NH2[F22K]-C16diacid/22] (peptide)
peptide: EGTFISDYSIAMDKIHQQDK(C16 diacid)VNWLLAQK-NH2
modifications: N-terminus assumed
SMILES: CC[C@H](C)[C@H](NC(=O)[C@H](CO)NC(=O)[C@H](Cc1ccc(O)cc1)NC(=O)[C@H](CC(=O)O)NC(=O)[C@H](CO)NC(=O)[C@@H](NC(=O)[C@H](Cc1ccccc1)NC(=O)[C@@H](NC(=O)CNC(=O)[C@@H](N)CCC(=O)O)[C@@H](C)O)[C@@H](C)CC)C(=O)N[C@@H](C)C(=O)N[C@@H](CCSC)C(=O)N[C@@H](CC(=O)O)C(=O)N[C@@H](CCCCN)C(=O)N[C@H](C(=O)N[C@@H](Cc1c[nH]cn1)C(=O)N[C@@H](CCC(N)=O)C(=O)N[C@@H](CCC(N)=O)C(=O)N[C@@H](CC(=O)O)C(=O)N[C@@H](CCCCNC(=O)CCCCCCCCCCCCCCC(=O)O)C(=O)N[C@H](C(=O)N[C@@H](CC(N)=O)C(=O)N[C@@H](Cc1c[nH]c2ccccc12)C(=O)N[C@@H](CC(C)C)C(=O)N[C@@H](CC(C)C)C(=O)N[C@@H](C)C(=O)N[C@@H](CCC(N)=O)C(=O)N[C@@H](CCCCN)C(N)=O)C(C)C)[C@@H](C)CC
B7: AT313 [hGIP(3-30)NH2[N24K]-C16diacid/24] (peptide)
peptide: EGTFISDYSIAMDKIHQQDFVK(C16 diacid)WLLAQK-NH2
modifications: N-terminus assumed
SMILES: CC[C@H](C)[C@H](NC(=O)[C@H](CO)NC(=O)[C@H](Cc1ccc(O)cc1)NC(=O)[C@H](CC(=O)O)NC(=O)[C@H](CO)NC(=O)[C@@H](NC(=O)[C@H](Cc1ccccc1)NC(=O)[C@@H](NC(=O)CNC(=O)[C@@H](N)CCC(=O)O)[C@@H](C)O)[C@@H](C)CC)C(=O)N[C@@H](C)C(=O)N[C@@H](CCSC)C(=O)N[C@@H](CC(=O)O)C(=O)N[C@@H](CCCCN)C(=O)N[C@H](C(=O)N[C@@H](Cc1c[nH]cn1)C(=O)N[C@@H](CCC(N)=O)C(=O)N[C@@H](CCC(N)=O)C(=O)N[C@@H](CC(=O)O)C(=O)N[C@@H](Cc1ccccc1)C(=O)N[C@H](C(=O)N[C@@H](CCCCNC(=O)CCCCCCCCCCCCCCC(=O)O)C(=O)N[C@@H](Cc1c[nH]c2ccccc12)C(=O)N[C@@H](CC(C)C)C(=O)N[C@@H](CC(C)C)C(=O)N[C@@H](C)C(=O)N[C@@H](CCC(N)=O)C(=O)N[C@@H](CCCCN)C(N)=O)C(C)C)[C@@H](C)CC

Molecular target: T1, human GIP receptor (human, UniProt P48546 22-466)
T1 sequence (looked up): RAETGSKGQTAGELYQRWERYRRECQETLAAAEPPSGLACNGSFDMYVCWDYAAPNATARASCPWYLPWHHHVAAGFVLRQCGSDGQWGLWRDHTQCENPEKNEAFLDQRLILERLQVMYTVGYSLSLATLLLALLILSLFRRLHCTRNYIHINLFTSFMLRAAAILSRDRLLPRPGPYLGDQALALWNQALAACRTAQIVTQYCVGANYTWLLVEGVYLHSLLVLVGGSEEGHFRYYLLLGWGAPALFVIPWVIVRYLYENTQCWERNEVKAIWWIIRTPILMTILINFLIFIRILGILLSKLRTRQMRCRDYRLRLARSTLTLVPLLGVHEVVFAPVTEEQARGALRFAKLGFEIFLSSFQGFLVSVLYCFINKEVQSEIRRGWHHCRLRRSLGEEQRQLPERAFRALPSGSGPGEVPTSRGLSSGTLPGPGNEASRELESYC
Test: cell-based or functional assay

| Binder | cAMP agonism, EC50 (log) | cAMP agonism, Emax | cAMP agonism, nM (EC50) | cAMP antagonism, log (IC50) | cAMP antagonism, nM (IC50) |
| --- | --- | --- | --- | --- | --- |
| B1 | -7.9 log M | 4.9% | 14 nM | -7 log M | 93 nM |
| B2 | – | – | – | -7.4 log M | 36 nM |
| B3 | -7.4 log M | 6.2% | 39 nM | -7.3 log M | 49 nM |
| B4 | -7.5 log M | 7.9% | 34 nM | -6.9 log M | 132 nM |
| B5 | -5.4 log M | 54% | 4080 nM | – | – |
| B6 | -6.1 log M | 17.5% | 784 nM | -6 log M | 923 nM |
| B7 | -7 log M | 7.2% | 97 nM | -6.5 log M | 348 nM |
